From IntAct's records for PubMed 24417819

B1: Tetratricopeptide repeat protein 7A (Homo sapiens), Q9ULT0 (parent)
chain: MAAKGAHGSYLKVESELERCRAEGHWDRMPELVRQLQTLSMPGGGGNRRGSPSAAFTFPDTDDFGKLLLAEALLEQCLKENHAKIKDSMPLLEKNEPKMSEAKNYLSSILNHGRLSPQYMCEAMLILGKLHYVEGSYRDAISMYARAGIDDMSMENKPLYQMRLLSEAFVIKGLSLERLPNSIASRFRLTEREEEVITCFERASWIAQVFLQELEKTTNNSTSRHLKGCHPLDYELTYFLEAALQSAYVKNLKKGNIVKGMRELREVLRTVETKATQNFKVMAAKHLAGVLLHSLSEECYWSPLSHPLPEFMGKEESSFATQALRKPHLYEGDNLYCPKDNIEEALLLLLISESMATRDVVLSRVPEQEEDRTVSLQNAAAIYDLLSITLGRRGQYVMLSECLERAMKFAFGEFHLWYQVALSMVACGKSAYAVSLLRECVKLRPSDPTVPLMAAKVCIGSLRWLEEAEHFAMMVISLGEEAGEFLPKGYLALGLTYSLQATDATLKSKQDELHRKALQTLERAQQLAPSDPQVILYVSLQLALVRQISSAMEQLQEALKVRKDDAHALHLLALLFSAQKHHQHALDVVNMAITEHPENFNLMFTKVKLEQVLKGPEEALVTCRQVLRLWQTLYSFSQLGGLEKDGSFGEGLTMKKQSGMHLTLPDAHDADSGSRRASSIAASRLEEAMSELTMPSSVLKQGPMQLWTTLEQIWLQAAELFMEQQHLKEAGFCIQEAAGLFPTSHSVLYMRGRLAEVKGNLEEAKQLYKEALTVNPDGVRIMHSLGLMLSRLGHKSLAQKVLRDAVERQSTCHEAWQGLGEVLQAQGQNEAAVDCFLTALELEASSPVLPFSIIPREL

Variants of: B1
Details: with PI4K2A
For E71K, the “effect of a mutation on the interaction” value was “decreasing interaction”.
With A832T the “effect of a mutation on the interaction” value was “decreasing interaction”.
